Data on ten sequences can be found in the Immune Epitope Database (IEDB).

One experiment deals with HLA-C*06:02. In words: IEDB peptide-MHC binding, purified MHC/direct/fluorescence; filed as Kd, often an IC50 or EC50 that approximates it; ≥ and ≤ were set here for values at or beyond the usual limits of such assays.
In experiment [1] the target is HLA-A*03:01. Nature of the experiment: IEDB peptide-MHC binding, purified MHC/competitive/fluorescence; filed as Kd, often an IC50 or EC50 that approximates it; ≥ and ≤ were set here for values at or beyond the usual limits of such assays. The settings on record: source organism: Escherichia coli.
Experiment [2] deals with HLA-A*31:01. The experiment is described as above. The note with it: source organism: Escherichia coli.
The target in experiment [3] is HLA-B*15:01. Described as above. The note with it: source organism: Escherichia coli.
The next experiment addresses HLA-C*04:01. In words: IEDB peptide-MHC binding, purified MHC/direct/fluorescence; filed as Kd, often an IC50 or EC50 that approximates it; ≥ and ≤ were set here for values at or beyond the usual limits of such assays. The settings on record: source organism: Influenza A virus (A/turkey/Ohio/313053/2004(H3N2)).
A further experiment addresses HLA-A*24:02. In words: IEDB peptide-MHC binding, purified MHC/competitive/fluorescence; filed as Kd, often an IC50 or EC50 that approximates it; ≥ and ≤ were set here for values at or beyond the usual limits of such assays.
In the next experiment the target is HLA-A*02:01. Nature of the experiment: IEDB peptide-MHC binding, purified MHC/direct/fluorescence; filed as Kd, often an IC50 or EC50 that approximates it; ≥ and ≤ were set here for values at or beyond the usual limits of such assays. The note with it: source organism: Yersinia pestis.
In experiment [4] the target is HLA-A*03:01. The experiment is described as above. The note with it: source organism: Yersinia pestis.
The target in the next experiment is HLA-A*11:01. The experiment is described as above. The note with it: source organism: Yersinia pestis.
The next experiment has as its target HLA-A*26:01. The description is as above. The settings on record: source organism: Yersinia pestis.
Experiment [5] has as its target HLA-A*31:01. The description is as above. The settings on record: source organism: Yersinia pestis.
Another experiment addresses HLA-A*69:01. Described as above. The note with it: source organism: Yersinia pestis.
Another experiment addresses HLA-B*07:02. Described as above. The note with it: source organism: Yersinia pestis.
A further experiment addresses HLA-B*08:01. The description is as above. The note with it: source organism: Yersinia pestis.
Experiment [6] has as its target HLA-B*15:01. Described as above. The settings on record: source organism: Yersinia pestis.
The target of a further experiment is HLA-B*15:02. Described as above.
In experiment [7] the target is HLA-B*27:05. The experiment is described as above. The settings on record: source organism: Yersinia pestis.
For experiment [8], the target named is HLA-B*40:01. The description is as above. The note with it: source organism: Yersinia pestis.
Experiment [9] concerns the target HLA-B*46:01. The experiment is described as above. The settings on record: source organism: Yersinia pestis.
The next experiment concerns the target HLA-B*58:01. Described as above. The settings on record: source organism: Yersinia pestis.
The target of a further experiment is HLA-A*68:23. In words: IEDB peptide-MHC binding, purified MHC/competitive/fluorescence; filed as Kd, often an IC50 or EC50 that approximates it; ≥ and ≤ were set here for values at or beyond the usual limits of such assays.
A further experiment has as its target HLA-B*15:42. The description is as above.
Another experiment concerns the target HLA-B*27:20. The description is as above. The settings on record: source organism: Escherichia coli 536.
Experiment [10] concerns the target HLA-B*40:01. The description is as above. The note with it: source organism: Escherichia coli 536.
The next experiment has as its target HLA-B*40:13. Described as above.
The next experiment concerns the target HLA-B*45:06. The experiment is described as above.
The target in a further experiment is HLA-B*83:01. The experiment is described as above.
Experiment [11] addresses HLA-B*27:05. In words: IEDB peptide-MHC binding, purified MHC/competitive/fluorescence; ≥ and ≤ were set here for values at or beyond the usual limits of such assays.
The target in a further experiment is HLA-B*08:02. Nature of the experiment: IEDB peptide-MHC binding, purified MHC/direct/fluorescence; filed as Kd, often an IC50 or EC50 that approximates it; ≥ and ≤ were set here for values at or beyond the usual limits of such assays. The note with it: source organism: Campylobacter jejuni subsp. jejuni 81116.
A further experiment deals with HLA-A*32:07. Nature of the experiment: IEDB peptide-MHC binding, purified MHC/competitive/fluorescence; filed as Kd, often an IC50 or EC50 that approximates it; ≥ and ≤ were set here for values at or beyond the usual limits of such assays. The settings on record: source organism: Campylobacter jejuni subsp. jejuni NCTC 11168 = ATCC 700819.
Experiment [12] deals with HLA-B*46:01. The experiment is described as above. The note with it: source organism: Campylobacter jejuni subsp. jejuni NCTC 11168 = ATCC 700819.
In the next experiment the target is HLA-A*01:01. In words: IEDB peptide-MHC binding, purified MHC/direct/fluorescence; filed as Kd, often an IC50 or EC50 that approximates it; ≥ and ≤ were set here for values at or beyond the usual limits of such assays. The note with it: source organism: Yersinia pestis.
For the next experiment, the target named is HLA-B*35:01. The description is as above. The note with it: source organism: Yersinia pestis.
The target in a further experiment is HLA-B*44:02. Described as above. The settings on record: source organism: Yersinia pestis.
Where [13] appears, read: source organism: Escherichia coli 536.
Setting [14] is: source organism: Mycobacterium tuberculosis variant bovis BCG str. Pasteur 1173P2.
The mark [15] stands for this setting: source organism: Campylobacter jejuni subsp. jejuni NCTC 11168 = ATCC 700819.

Broadly, the Kd is the constant that tells how readily two partners part at equilibrium. Higher therefore signals lower affinity. On to RYWRLRYRI, for which the Kd was not below 20 µM with HLA-C*06:02 (source organism: Escherichia coli), not below 20 µM with HLA-A*03:01 [1], 0.0021 µM with HLA-A*31:01 [2] and not below 20 µM with HLA-B*15:01 [3].

Take RYSGFVRTL: the Kd in the experiment with HLA-C*04:01 was not below 20 µM; with HLA-A*24:02 (source organism: Influenza A virus (A/turkey/Ohio/313053/2004(H3N2))), 0.0011 µM.

With RQLESRLGY, the Kd is not below 20 µM with HLA-A*02:01; 0.0616 µM in the experiment with HLA-A*03:01 [4]; 0.13 µM in the experiment with HLA-A*11:01; not below 20 µM with HLA-A*26:01; 0.288 µM with HLA-A*31:01 [5]; not below 20 µM with HLA-A*69:01. Besides, the Kd was not below 20 µM with HLA-B*07:02; not below 20 µM with HLA-B*08:01; 0.146 µM with HLA-B*15:01 [6]; 0.077 µM in the experiment with HLA-B*15:02 (source organism: Yersinia enterocolitica subsp. enterocolitica 8081); 0.0656 µM with HLA-B*27:05 [7]; 3.74 µM with HLA-B*40:01 [8]. Moreover, the dissociation constant Kd in the experiment with HLA-B*46:01 [9] and with HLA-B*58:01 was not below 20 µM each time.

With KEMGFSPRL, the Kd with HLA-A*68:23 (setting [13]) is 0.121 µM; with HLA-B*15:42 (setting [13]) it was not below 5 µM; with HLA-B*27:20, 0.176 µM; with HLA-B*40:01 [10], 0.0103 µM; with HLA-B*40:13 (setting [13]), 0.0336 µM; with HLA-B*45:06 (setting [13]) it was not below 5 µM. Further, the Kd in the experiment with HLA-B*83:01 (setting [13]) was not below 5 µM.

As usually defined, the IC50 is the point on the concentration scale where inhibition reaches its midpoint. A low value points to inhibition by little substance. Consider GGAAICGKY, for which the IC50 with HLA-B*27:05 [11] (source organism: Hepacivirus hominis) was not below 750 µM.

Take TTFDLTLRR: the Kd is 0.0121 µM with HLA-A*68:23 (setting [14]), not below 5 µM with HLA-B*15:42 (setting [14]), not below 5 µM with HLA-B*45:06 (setting [14]) and not below 5 µM in the experiment with HLA-B*83:01 (setting [14]).

On to YMKKRYEEF, for which the Kd with HLA-B*08:02 is 0.127 µM; with HLA-C*06:02 (setting [15]), not below 20 µM; with HLA-A*32:07 it was 0.232 µM; with HLA-B*15:42 (setting [15]), not below 5 µM; with HLA-B*40:13 (setting [15]) it was 0.326 µM; with HLA-B*45:06 (setting [15]), not below 5 µM. The Kd in the experiment with HLA-B*46:01 [12] was 0.188 µM; in the experiment with HLA-B*83:01 (setting [15]), not below 5 µM.

Regarding MQLQLNCAY, the Kd is 2.77 µM with HLA-A*01:01; not below 20 µM with HLA-A*02:01; not below 20 µM with HLA-A*03:01 [4]; not below 20 µM with HLA-A*11:01; not below 20 µM in the experiment with HLA-A*26:01; 6.35 µM in the experiment with HLA-A*31:01 [5]. Besides, the Kd in the experiment with HLA-A*69:01 was 1.33 µM; with HLA-B*07:02, not below 10 µM; in the experiment with HLA-B*08:01, not below 20 µM; with HLA-B*15:01 [6] it was 0.112 µM; with HLA-B*15:02 (source organism: Yersinia pestis CA88-4125), 0.015 µM; with HLA-B*27:05 [7], not below 20 µM. For the same sequence, the Kd in the experiment with HLA-B*35:01 is 0.0337 µM; in the experiment with HLA-B*40:01 [8], 0.705 µM; in the experiment with HLA-B*44:02, not below 20 µM; in the experiment with HLA-B*46:01 [9], not below 20 µM.

The sequence MYSDFHFI had a Kd with HLA-A*24:02 (source organism: Influenza A virus (A/X-31(H3N2))) of 0.146 µM.

With RRFFPYYV, in the experiment with HLA-B*27:05 [11] (source organism: Homo sapiens), the IC50 is 3.2 µM. In other words, the single-digit micromolar range.
